1 substance from patent publication US20210123927A1 can be followed below.

The target of the experiment is galactose-deficient IgA1 (Gd-IgA1), enzymatically generated (UniProt P01876). Nature of the experiment: dot blot, anti-His detection.

Bounds are passed on as bounds.

Chain of UniProt P01876 (P01876 other isoform, or with tags, fused parts or gaps): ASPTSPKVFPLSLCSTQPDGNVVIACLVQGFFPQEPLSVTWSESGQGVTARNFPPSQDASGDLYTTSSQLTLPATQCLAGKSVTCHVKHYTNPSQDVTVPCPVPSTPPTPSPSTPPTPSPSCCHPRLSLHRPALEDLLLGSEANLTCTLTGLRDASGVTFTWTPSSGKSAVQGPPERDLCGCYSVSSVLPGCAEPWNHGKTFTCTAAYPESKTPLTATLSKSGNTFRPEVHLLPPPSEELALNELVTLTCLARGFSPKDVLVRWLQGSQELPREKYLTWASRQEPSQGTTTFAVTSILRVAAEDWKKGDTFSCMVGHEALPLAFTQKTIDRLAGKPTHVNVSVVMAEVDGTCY

As for “RussiaSea-001 (Crenomytilus grayanus lectin/CGL), His-tagged (artificial RussiaSea-001) (from UniProt H2FH31 1-150)”, the amount of Gd-IgA1 detected in dot blot is above 1 µg.
